Experiment [1] concerns the target T1, Wag31 (recombinant, from Wag31-pet28a) (Mycobacterium tuberculosis, UniProt P9WMU1 1-260).
T1 sequence: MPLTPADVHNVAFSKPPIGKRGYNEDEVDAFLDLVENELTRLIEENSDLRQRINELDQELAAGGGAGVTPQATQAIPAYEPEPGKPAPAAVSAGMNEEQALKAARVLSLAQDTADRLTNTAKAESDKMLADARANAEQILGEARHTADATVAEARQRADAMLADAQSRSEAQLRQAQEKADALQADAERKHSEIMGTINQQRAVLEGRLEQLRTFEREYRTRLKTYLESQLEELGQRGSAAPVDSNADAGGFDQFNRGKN
The experiment in a line: co-IP. The following applies: both partners purified.

The target in experiment [2] is T1, Wag31 (recombinant, from Wag31-pet28a). The experiment in a line: pull-down. The following applies: both partners purified.

B1: 6X His-tagged Rv3852 protein (natural protein)
chain: MPDPQDRPDSEPSDASTPPAKKLPAKKAAKKAPARKTPAKKAPAKKTPAKGAKSAPPKPAEAPVSLQQRIETNGQLAAAAKDAAAQAKSTVEGANDALARNASVPAPSHSPVPLIVAVTLSLLALLLIRQLRRR
notes: also called hexa-histidine tagged Rv3852
For B1, in experiment [1], the binding result is “binds”.

B2: Rv3852-MBP (natural protein)
chain: B1 chain
Consider B2, for which, in experiment [2], the binding result was “binds”.

For the origin of these results see publication PMC8233713, “Direct Interaction of Polar Scaffolding Protein Wag31 with Nucleoid-Associated Protein Rv3852 Regulates Its Polar Localization” (Cells, 2021).
